Changes are numbered by the printed parent chain. *1 amine or outer side, *2 acyl side, *3 side chain or, on linkers, in order; H or OH if unused. Where no end group is shown, it is not given here. Side-chain parts run from the residue outwards. [ ]: non-standard residue; d: D form. The star is where a group is joined. Decanoyl(10-(4-HOOC-PhO)) = O=C(O)c1ccc(OCCCCCCCCCC(=O)*)cc1; αMePhe(2-F) = C[C@](N)(Cc1ccccc1F)C(=O)O; γGlu = O=C(O)[C@H](CCC(=O)[*:2])N[*:1]; αMeY = C[C@](N)(Cc1ccc(O)cc1)C(=O)O; αMeL = CC(C)C[C@](C)(N)C(=O)O; Nle = CCCC[C@H](N)C(=O)O; Orn = NCCC[C@H](N)C(=O)O; AEEA = NCCOCCOCC(=O)O; Aib = CC(C)(N)C(=O)O
B1: Example 290 (peptide)
peptide: YXEGTXTSDXSIXLDXKAQXEFIXXLIKGGPSSGAPPPS
modifications: Y-Aib-EGT-αMeF(2F)-TSD-OMeY-SI-αMeL-LD-Orn-K((2-[2-(2-Amino-ethoxy)-ethoxy]-acetyl)2-(γ-Glu)-CO-(CH2)10-CH3)AQ-Aib-EFI-(D-Glu)-αMeY-LIK((2-[2-(2-Amino-ethoxy)-ethoxy]-acetyl)2-(γ-Glu)-CO-(CH2)10-CH3)GGPSSGAPPPS-NH2
B2: Example 306 (peptide)
peptide: B1 peptide with S11X, K17I, X24K
modifications: Y-Aib-EGT-αMeF(2F)-TSD-4Pal-αMeS-I-αMeL-LD-Orn-IAQ-Aib-EFIK((2-[2-(2-Amino-ethoxy)-ethoxy]-acetyl)2-(γ-Glu)-(10-(4-carboxyphenoxy)decanoyl))-αMeY-LIK((2-[2-(2-Amino-ethoxy)-ethoxy]-acetyl)2-(γ-Glu)-(10-(4-carboxyphenoxy)decanoyl))GGPSSGAPPPS-NH2
B3: Example 315 (peptide)
peptide: B1 peptide with S11X, K17I, E21X, X24K
modifications: Y-Aib-EGT-αMeF(2F)-TSD-4Pal-Aib-I-αMeL-LD-Orn-IAQ-Aib-Orn-FIK((2-[2-(2-Amino-ethoxy)-ethoxy]-acetyl)2-(γ-Glu)-CO-(CH2)12-CO2H)-αMeY-LIK((2-[2-(2-Amino-ethoxy)-ethoxy]-acetyl)2-(γ-Glu)-CO-(CH2)12-CO2H)GGPSSGAPPPS-NH2
B4: Example 346 (peptide)
peptide: B1 peptide with X10Y, S11X, K17I, X24K
modifications: Y-Aib-EGT-αMeF(2F)-TSDY-Aib-I-αMeL-LD-Orn-IAQ-Aib-EFIK(2-[2-(2-Amino-ethoxy)-ethoxy]-acetyl)3-(γ-Glu)-(10-(4-carboxyphenoxy)decanoyl)-αMeY-LIK((2-[2-(2-Amino-ethoxy)-ethoxy]-acetyl)3-(γ-Glu)-(10-(4-carboxyphenoxy)decanoyl)GGPSSGAPPPS-NH2)
B5: Example 289 (peptide)
peptide: B1 peptide with E21K, K28E
modifications: Y-Aib-EGT-αMeF(2F)-TSD-OMeY-SI-αMeL-LD-Orn-K((2-[2-(2-Amino-ethoxy)-ethoxy]-acetyl)2-(γ-Glu)-CO-(CH2)10-CH3)AQ-Aib-K((2-[2-(2-Amino-ethoxy)-ethoxy]-acetyl)2-(γ-Glu)-CO-(CH2)10-CH3)FI-(D-Glu)-αMeY-LIEGGPSSGAPPPS-NH2
B6: Example 321 (peptide)
peptide: B1 peptide with E21K, K28E
modifications: Y-Aib-EGT-αMeF(2F)-TSD-Nle-SI-αMeL-LD-Orn-K((2-[2-(2-Amino-ethoxy)-ethoxy]-acetyl)2-(γ-Glu)-(10-(4-carboxyphenoxy)decanoyl))AQ-Aib-K((2-[2-(2-Amino-ethoxy)-ethoxy]-acetyl)2-(γ-Glu)-(10-(4-carboxyphenoxy)decanoyl))FI-(D-Glu)-αMeY-LIEGGPSSGAPPPS-NH2
B7: Example 307 (peptide)
peptide: B1 peptide with X10Y, S11X, K17I, X24K
modifications: Y-Aib-EGT-αMeF(2F)-TSDY-αMeS-I-αMeL-LD-Orn-IAQ-Aib-EFIK((2-[2-(2-Amino-ethoxy)-ethoxy]-acetyl)2-(γ-Glu)-(10-(4-carboxyphenoxy)decanoyl))-αMeY-LIK((2-[2-(2-Amino-ethoxy)-ethoxy]-acetyl)2-(γ-Glu)-(10-(4-carboxyphenoxy)decanoyl))GGPSSGAPPPS-NH2
B8: Example 312 (peptide)
peptide: B1 peptide with X10Y, S11X, K17I, X24K
modifications: Y-Aib-EGT-αMeF(2F)-TSDY-Aib-I-αMeL-LD-Orn-IAQ-Aib-EFIK(2-[2-(2-Amino-ethoxy)-ethoxy]-acetyl)2-(γ-Glu)-(11-(4-carboxyphenoxy)undecanoyl)-αMeY-LIK((2-[2-(2-Amino-ethoxy)-ethoxy]-acetyl)2-(γ-Glu)-(11-(4-carboxyphenoxy)undecanoyl)GGPSSGAPPPS-NH2)
B9: Example 310 (peptide)
peptide: B1 peptide with K17I, X24K
modifications: Y-Aib-EGT-αMeF(2F)-TSD-hTyr-SI-αMeL-LD-Orn-IAQ-Aib-EFIK((2-[2-(2-Amino-ethoxy)-ethoxy]-acetyl)2-(γ-Glu)-(10-(4-carboxyphenoxy)decanoyl))-αMeY-LIK((2-[2-(2-Amino-ethoxy)-ethoxy]-acetyl)2-(γ-Glu)-(10-(4-carboxyphenoxy)decanoyl))GGPSSGAPPPS-NH2
B10: Example 287 (peptide)
peptide: B1 peptide with K17I, E21K
modifications: Y-Aib-EGT-αMeF(2F)-TSD-4Pal-SI-αMeL-LD-Orn-IAQ-Aib-K(2-[2-(2-Amino-ethoxy)-ethoxy]-acetyl)2-(γ-Glu)-(11-(4-carboxyphenoxy)undecanoyl)FI-(D-Glu)-αMeY-LIK((2-[2-(2-Amino-ethoxy)-ethoxy]-acetyl)2-(γ-Glu)-(11-(4-carboxyphenoxy)undecanoyl)GGPSSGAPPPS-NH2)
B11: Example 345 (peptide)
peptide: B1 peptide with S11X, K17I, X24K
modifications: Y-Aib-EGT-αMeF(2F)-TSD-4Pal-Aib-I-αMeL-LD-Orn-IAQ-Aib-EFIK((2-[2-(2-Amino-ethoxy)-ethoxy]-acetyl)3-(γ-Glu)-(10-(4-carboxyphenoxy)decanoyl))-αMeY-LIK((2-[2-(2-Amino-ethoxy)-ethoxy]-acetyl)3-(γ-Glu)-(10-(4-carboxyphenoxy)decanoyl))GGPSSGAPPPS-NH2
B12: Example 316 (peptide)
peptide: YXEGTXTSDYXIXLDXIAQXXFIKXLIKGGPSSGAPPPS
modifications: Y-Aib-EGT-αMeF(2F)-TSDY-Aib-I-αMeL-LD-Orn-IAQ-Aib-Orn-FIK((2-[2-(2-Amino-ethoxy)-ethoxy]-acetyl)2-(γ-Glu)-CO-(CH2)12-CO2H)-αMeY-LIK((2-[2-(2-Amino-ethoxy)-ethoxy]-acetyl)2-(γ-Glu)-CO-(CH2)12-CO2H)GGPSSGAPPPS-NH2
B13: Example 333 (peptide)
peptide: Y[Aib]EGT[αMePhe(2-F)]TSD[Nle]SI[αMeL]LD[Orn]IAQ[Aib]K([AEEA-AEEA-γGlu-Decanoyl(10-(4-HOOC-PhO))])FI[dE][αMeY]LIK([AEEA-AEEA-γGlu-Decanoyl(10-(4-HOOC-PhO))])GGPSSGAPPPS-NH2
modifications: N-terminus assumed
SMILES: CCCC[C@H](NC(=O)[C@H](CC(=O)O)NC(=O)[C@H](CO)NC(=O)[C@@H](NC(=O)[C@](C)(Cc1ccccc1F)NC(=O)[C@@H](NC(=O)CNC(=O)[C@H](CCC(=O)O)NC(=O)C(C)(C)NC(=O)[C@@H](N)Cc1ccc(O)cc1)[C@@H](C)O)[C@@H](C)O)C(=O)N[C@@H](CO)C(=O)N[C@H](C(=O)N[C@@](C)(CC(C)C)C(=O)N[C@@H](CC(C)C)C(=O)N[C@@H](CC(=O)O)C(=O)N[C@@H](CCCN)C(=O)N[C@H](C(=O)N[C@@H](C)C(=O)N[C@@H](CCC(N)=O)C(=O)NC(C)(C)C(=O)N[C@@H](CCCCNC(=O)COCCOCCNC(=O)COCCOCCNC(=O)CC[C@H](NC(=O)CCCCCCCCCOc1ccc(C(=O)O)cc1)C(=O)O)C(=O)N[C@@H](Cc1ccccc1)C(=O)N[C@H](C(=O)N[C@H](CCC(=O)O)C(=O)N[C@@](C)(Cc1ccc(O)cc1)C(=O)N[C@@H](CC(C)C)C(=O)N[C@H](C(=O)N[C@@H](CCCCNC(=O)COCCOCCNC(=O)COCCOCCNC(=O)CC[C@H](NC(=O)CCCCCCCCCOc1ccc(C(=O)O)cc1)C(=O)O)C(=O)NCC(=O)NCC(=O)N1CCC[C@H]1C(=O)N[C@@H](CO)C(=O)N[C@@H](CO)C(=O)NCC(=O)N[C@@H](C)C(=O)N1CCC[C@H]1C(=O)N1CCC[C@H]1C(=O)N1CCC[C@H]1C(=O)N[C@@H](CO)C(N)=O)[C@@H](C)CC)[C@@H](C)CC)[C@@H](C)CC)[C@@H](C)CC

Molecular target: human glucagon receptor (human, UniProt P47871 26-477)
Test: cell-based or functional assay

| Binder | cAMP EC50 (1.0% HSA) |
| --- | --- |
| B1 | > 9950 nM |
| B2 | > 9950 nM |
| B3 | > 9950 nM |
| B4 | > 9950 nM |
| B5 | > 9950 nM |
| B6 | > 9950 nM |
| B7 | > 9950 nM |
| B8 | > 9950 nM |
| B9 | > 9950 nM |
| B10 | > 9950 nM |
| B11 | > 9950 nM |
| B12 | > 9950 nM |
| B13 | > 9950 nM |
| Y[Aib]EGT[αMePhe(2-F)]TSD[Nle]SI[αMeL]LD[Orn]IAQ[Aib]EFIK([AEEA-AEEA-γGlu-Decanoyl(10-(4-HOOC-PhO))])[αMeY]LIK([AEEA-AEEA-γGlu-Decanoyl(10-(4-HOOC-PhO))])GGPSSGAPPPS-NH2 [Example 314] | > 9950 nM |

Molecular target: T1, human GIP receptor (human, UniProt P48546 22-466)
T1 sequence (looked up): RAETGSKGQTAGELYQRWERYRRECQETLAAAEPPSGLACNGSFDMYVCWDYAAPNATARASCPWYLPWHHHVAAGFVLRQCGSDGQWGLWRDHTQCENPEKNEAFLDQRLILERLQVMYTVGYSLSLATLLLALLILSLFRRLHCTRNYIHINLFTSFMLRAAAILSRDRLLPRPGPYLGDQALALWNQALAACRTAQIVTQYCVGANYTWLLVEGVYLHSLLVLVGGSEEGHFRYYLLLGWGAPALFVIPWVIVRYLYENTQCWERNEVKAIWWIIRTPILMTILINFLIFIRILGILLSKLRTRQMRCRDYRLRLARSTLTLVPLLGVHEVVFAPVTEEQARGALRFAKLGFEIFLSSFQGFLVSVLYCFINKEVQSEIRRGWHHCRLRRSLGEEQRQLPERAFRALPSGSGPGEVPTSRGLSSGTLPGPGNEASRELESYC
Test: cell-based or functional assay

| Binder | cAMP EC50 (1.0% HSA) | cAMP Emax (1.0% HSA) |
| --- | --- | --- |
| B1 | 0.878 nM | – |
| B2 | 1.12 nM | – |
| B3 | 0.393 nM | 89.2% |
| B4 | 1.83 nM | 83.9% |
| B5 | 3.11 nM | – |
| B6 | 0.631 nM | – |
| B7 | 1.66 nM | 81.8% |
| B8 | 4.48 nM | 89.5% |
| B9 | 2.4 nM | 83.9% |
| B10 | 3.76 nM | – |
| B11 | 0.731 nM | – |
| B12 | 1.11 nM | – |
| B13 | 6.74 nM | – |
| Y[Aib]EGT[αMePhe(2-F)]TSD[Nle]SI[αMeL]LD[Orn]IAQ[Aib]EFIK([AEEA-AEEA-γGlu-Decanoyl(10-(4-HOOC-PhO))])[αMeY]LIK([AEEA-AEEA-γGlu-Decanoyl(10-(4-HOOC-PhO))])GGPSSGAPPPS-NH2 [Example 314] | 3.51 nM | – |

Molecular target: human GLP-1 receptor (human, UniProt P43220 24-463)
Test: cell-based or functional assay

| Binder | cAMP EC50 (1.0% HSA) | cAMP Emax (1.0% HSA) |
| --- | --- | --- |
| B1 | 12.1 nM | – |
| B2 | 18.2 nM | – |
| B3 | 5.38 nM | 93.5% |
| B4 | 19 nM | 97.7% |
| B5 | 627 nM | 170% |
| B6 | 13.9 nM | – |
| B7 | 33 nM | – |
| B8 | 50.8 nM | – |
| B9 | 22 nM | – |
| B10 | 83.8 nM | – |
| B11 | 11.8 nM | – |
| B12 | 19.2 nM | 113% |
| B13 | 70.4 nM | – |
| Y[Aib]EGT[αMePhe(2-F)]TSD[Nle]SI[αMeL]LD[Orn]IAQ[Aib]EFIK([AEEA-AEEA-γGlu-Decanoyl(10-(4-HOOC-PhO))])[αMeY]LIK([AEEA-AEEA-γGlu-Decanoyl(10-(4-HOOC-PhO))])GGPSSGAPPPS-NH2 [Example 314] | 38.6 nM | – |

From US20230265151A1, “GIP/GLP1 CO-AGONIST COMPOUNDS” (priority 2020, published 2023)
